According to article PMC5487423:

Target: P991_AMBCA, purified, C-terminal StrepII-8xHis tag (Amblyomma cajennense)
Assay: BLI; Kd and koff determination: His-tagged evasin immobilised on Ni-NTA biosensor (OctetRed), chemokine dilutions from 300 nM to 0.4 nM, 30 °C, same buffer as the screen; reference protein subtracted; 1:1 model with global fit, or steady state; each experiment once

Substance: CCL13 (from UniProt Q99616 17-98) (ligand)
- dissociation half-life: 2.72 h
